The results in this text go back to patent publication US20150203577A1 (Chugai, published 2015).

The target of test [1] is T1, mouse FcγRII (mouse, UniProt P08101 30-210).
T1 construct: Extracellular domain with C-terminal His tag; also called mFcγRII; mFcgRII
T1 sequence: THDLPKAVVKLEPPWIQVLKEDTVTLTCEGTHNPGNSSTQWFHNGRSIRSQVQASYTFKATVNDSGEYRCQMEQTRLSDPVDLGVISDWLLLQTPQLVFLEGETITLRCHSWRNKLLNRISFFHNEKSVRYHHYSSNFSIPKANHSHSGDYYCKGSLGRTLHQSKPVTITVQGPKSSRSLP
The experiment in a line: SPR (Biacore T200); KD of H237-MB630/MRAL-k0 / KD of variant. An excerpt: (§1) The antibody H chain variable region used was the variable region H237 (SEQ ID NO: 1) of the H chain VH3-IgG1 of the anti-IL-6 receptor antibody Fv4-IgG1 described in WO2009/125825. The antibody L chain commonly used was the L chain MRAL-k0 (SEQ ID NO: 2) of the anti-IL-6 receptor antibody tocilizumab. […] These variants were expressed and purified by the method of Reference Example 1 and evaluated for their binding to mFcγRII and mFcγRIII by the method of Reference Example 2 using Biacore T200.
(§2) Each altered antibody was analyzed for its interaction with each Fcγ receptor prepared above using Biacore T100 (GE Healthcare Japan Corp.), Biacore T200 (GE Healthcare Japan Corp.), Biacore A100, or Biacore 4000. The running buffer used was HBS-EP+ (GE Healthcare Japan Corp.). The assay temperature was set to 25° C. The sensor chips used were chips prepared by immobilizing Protein L (ACTIGEN or BioVision) onto Series S Sensor Chip CM5 (GE Healthcare Japan Corp.) or Series S Sensor Chip CM4 (GE Healthcare Japan Corp.) by the amine coupling method.
(§3) In order to calculate the KD value of each altered antibody for FcγR, kinetic analysis was conducted according to the following method: first, the antibody of interest was captured onto any of these chips and allowed to interact with mFcγR diluted with a running buffer. For the obtained sensorgram, the assay results were globally fit into the 1:1 Langmuir binding model using Biacore Evaluation Software to calculate an association rate constant ka (L/mol/s) and a dissociation rate constant kd (1/s). From these values, the dissociation constant KD (mol/L) was calculated.
A general note: In SPR one partner is held on a chip, and binding of the other changes the refractive index at the surface.

In test [2] the target is T2, mouse FcγRIII (mouse, UniProt P08508 31-215).
T2 construct: Extracellular domain with C-terminal His tag; also called mFcγRIII; mFcgRIII
T2 chain: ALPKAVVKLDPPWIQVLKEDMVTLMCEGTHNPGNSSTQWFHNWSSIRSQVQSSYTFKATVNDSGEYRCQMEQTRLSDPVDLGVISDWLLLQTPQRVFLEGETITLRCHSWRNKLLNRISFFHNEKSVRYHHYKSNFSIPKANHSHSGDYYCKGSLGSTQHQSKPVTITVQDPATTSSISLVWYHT
The description is as above.
Excerpt: as §1, §2, §3

Test [3] deals with T1, mouse FcγRII. Nature of the test: SPR (Biacore T200); KD of H237-mIgG1/MRAL-k0 / KD of variant.
Excerpt: as §1, §2

Test [4] has as its target T2, mouse FcγRIII. Described as above.
Excerpt: as §1, §2

B1: MB766 (antibody, mouse IgG1, kappa)
heavy: QVQLQESGPGLVKPSETLSLTCAVSGHSISHDHAWSWVRQPPGEGLEWIGFISYSGITNYNPSLQGRVTISRDNSKNTLYLQMNSLRAEDTAVYYCARSLARTTAMDYWGEGTLVTVSSAKTTPPSVYPLAPGSAAQTNSMVTLGCLVKGYFPEPVTVTWNSGSLSSGVHTFPAVLQSDLYTLSSSVTVPSSTWPSETVTCNVAHPASSTKVDKKIVPRDCGCKPCICEPNEVELVFIFPPKPKDVLTITLTPKVTCVVVDISKDDPEVQFSWFVDDVEVHTAQTQPREEQFNSTFRSVSELPIMHQDWLNGKEFKCRVMSAAFPAPIEKTISKTKGRPKAPQVYTIPPPKEQMAKDKVSLTCMITDFFPEDITVEWQWNGQPAENYKNTQPIMDTDGSYFVYSKLNVQKSNWEAGNTFTCSVLHEGLHNHHTEKSLSHSPGK
light: not shown
notes: CH name; VH H237 + CH, L chain MRAL-k0; copies: 2 + 2
As for B1, the “Relative mFcγRII-binding activity (MB630 = 1)” value in test [1] worked out at 1.29 fold. For the same molecule, the “Relative mFcγRIII-binding activity (MB630 = 1)” value in test [2] was found to be 1.55 fold. The “relative mFcγRII-binding activity (mIgG1 = 1)” value in test [3] was determined as 14 fold. Further, the “relative mFcγRIII-binding activity (mIgG1 = 1)” value in test [4] worked out at 0.27 fold.

B2: MB770 (antibody, mouse IgG1, kappa)
heavy: QVQLQESGPGLVKPSETLSLTCAVSGHSISHDHAWSWVRQPPGEGLEWIGFISYSGITNYNPSLQGRVTISRDNSKNTLYLQMNSLRAEDTAVYYCARSLARTTAMDYWGEGTLVTVSSAKTTPPSVYPLAPGSAAQTNSMVTLGCLVKGYFPEPVTVTWNSGSLSSGVHTFPAVLQSDLYTLSSSVTVPSSTWPSETVTCNVAHPASSTKVDKKIVPRDCGCKPCICEPNEVELVFIFPPKPKDVLTITLTPKVTCVVVDISKDDPEVQFSWFVDDVEVHTAQTQPREEQFNSTFRSVSELPIMHQDWLNGKEFKCRVNSAAFPAFIEKTISKTKGRPKAPQVYTIPPPKEQMAKDKVSLTCMITDFFPEDITVEWQWNGQPAENYKNTQPIMDTDGSYFVYSKLNVQKSNWEAGNTFTCSVLHEGLHNHHTEKSLSHSPGK
light: not shown
notes: as for B1
For B2, the “Relative mFcγRII-binding activity (MB630 = 1)” value in test [1] is 1.23 fold. Moreover, the “Relative mFcγRIII-binding activity (MB630 = 1)” value in test [2] was determined as 1.4 fold. Besides, the “relative mFcγRII-binding activity (mIgG1 = 1)” value in test [3] stood at 13.3 fold. In test [4], the “relative mFcγRIII-binding activity (mIgG1 = 1)” value amounted to 0.24 fold.

B3: MB771 (antibody, mouse IgG1, kappa)
heavy: QVQLQESGPGLVKPSETLSLTCAVSGHSISHDHAWSWVRQPPGEGLEWIGFISYSGITNYNPSLQGRVTISRDNSKNTLYLQMNSLRAEDTAVYYCARSLARTTAMDYWGEGTLVTVSSAKTTPPSVYPLAPGSAAQTNSMVTLGCLVKGYFPEPVTVTWNSGSLSSGVHTFPAVLQSDLYTLSSSVTVPSSTWPSETVTCNVAHPASSTKVDKKIVPRDCGCKPCICEPNEVELVFIFPPKPKDVLTITLTPKVTCVVVDISKDDPEVQFSWFVDDVEVHTAQTQPREEQFNSTFRSVSELPIMHQDWLNGKEFKCRVNSAAFPAYIEKTISKTKGRPKAPQVYTIPPPKEQMAKDKVSLTCMITDFFPEDITVEWQWNGQPAENYKNTQPIMDTDGSYFVYSKLNVQKSNWEAGNTFTCSVLHEGLHNHHTEKSLSHSPGK
light: not shown
notes: as for B1
Turning to B3, the “Relative mFcγRII-binding activity (MB630 = 1)” value in test [1] is 1.27 fold. For the same molecule, the “Relative mFcγRIII-binding activity (MB630 = 1)” value in test [2] amounted to 1.53 fold. For the same molecule, the “relative mFcγRII-binding activity (mIgG1 = 1)” value in test [3] is 13.8 fold. In test [4], the “relative mFcγRIII-binding activity (mIgG1 = 1)” value worked out at 0.26 fold.

B4: MB767 (antibody, mouse IgG1, kappa)
heavy: QVQLQESGPGLVKPSETLSLTCAVSGHSISHDHAWSWVRQPPGEGLEWIGFISYSGITNYNPSLQGRVTISRDNSKNTLYLQMNSLRAEDTAVYYCARSLARTTAMDYWGEGTLVTVSSAKTTPPSVYPLAPGSAAQTNSMVTLGCLVKGYFPEPVTVTWNSGSLSSGVHTFPAVLQSDLYTLSSSVTVPSSTWPSETVTCNVAHPASSTKVDKKIVPRDCGCKPCICEPNEVELVFIFPPKPKDVLTITLTPKVTCVVVDISKDDPEVQFSWFVDDVEVHTAQTQPREEQFNSTFRSVSELPIMHQDWLNGKEFKCRVNSAAFPGPIEKTISKTKGRPKAPQVYTIPPPKEQMAKDKVSLTCMITDFFPEDITVEWQWNGQPAENYKNTQPIMDTDGSYFVYSKLNVQKSNWEAGNTFTCSVLHEGLHNHHTEKSLSHSPGK
light: not shown
notes: as for B1
With B4, in test [1], the “Relative mFcγRII-binding activity (MB630 = 1)” value stood at 0.16 fold. The “Relative mFcγRIII-binding activity (MB630 = 1)” value in test [2] turned out to be 0.19 fold. Further, the “relative mFcγRII-binding activity (mIgG1 = 1)” value in test [3] amounted to 1.8 fold. Besides, in test [4], the “relative mFcγRIII-binding activity (mIgG1 = 1)” value was found to be 0.03 fold.

B5: MB773 (antibody, mouse IgG1, kappa)
heavy: QVQLQESGPGLVKPSETLSLTCAVSGHSISHDHAWSWVRQPPGEGLEWIGFISYSGITNYNPSLQGRVTISRDNSKNTLYLQMNSLRAEDTAVYYCARSLARTTAMDYWGEGTLVTVSSAKTTPPSVYPLAPGSAAQTNSMVTLGCLVKGYFPEPVTVTWNSGSLSSGVHTFPAVLQSDLYTLSSSVTVPSSTWPSETVTCNVAHPASSTKVDKKIVPRDCGCKPCICEPNEVELVFIFPPKPKDVLTITLTPKVTCVVVDISKDDPEVQFSWFVDDVEVHTAQTQPREEQFNSTFRSVSELPIMHQDWLNGKEFKCRVNSAAFPAPIYKTISKTKGRPKAPQVYTIPPPKEQMAKDKVSLTCMITDFFPEDITVEWQWNGQPAENYKNTQPIMDTDGSYFVYSKLNVQKSNWEAGNTFTCSVLHEGLHNHHTEKSLSHSPGK
light: not shown
notes: as for B1
Consider B5, for which the “Relative mFcγRII-binding activity (MB630 = 1)” value in test [1] came to 1.17 fold. Also, the “Relative mFcγRIII-binding activity (MB630 = 1)” value in test [2] came out at 1.25 fold. Also, the “relative mFcγRII-binding activity (mIgG1 = 1)” value in test [3] turned out to be 12.7 fold. In test [4], the “relative mFcγRIII-binding activity (mIgG1 = 1)” value was found to be 0.22 fold.

B6: MB772 (antibody, mouse IgG1, kappa)
heavy: QVQLQESGPGLVKPSETLSLTCAVSGHSISHDHAWSWVRQPPGEGLEWIGFISYSGITNYNPSLQGRVTISRDNSKNTLYLQMNSLRAEDTAVYYCARSLARTTAMDYWGEGTLVTVSSAKTTPPSVYPLAPGSAAQTNSMVTLGCLVKGYFPEPVTVTWNSGSLSSGVHTFPAVLQSDLYTLSSSVTVPSSTWPSETVTCNVAHPASSTKVDKKIVPRDCGCKPCICEPNEVELVFIFPPKPKDVLTITLTPKVTCVVVDISKDDPEVQFSWFVDDVEVHTAQTQPREEQFNSTFRSVSELPIMHQDWLNGKEFKCRVNSAAFPAPINKTISKTKGRPKAPQVYTIPPPKEQMAKDKVSLTCMITDFFPEDITVEWQWNGQPAENYKNTQPIMDTDGSYFVYSKLNVQKSNWEAGNTFTCSVLHEGLHNHHTEKSLSHSPGK
light: not shown
notes: as for B1
Consider B6, for which, in test [1], the “Relative mFcγRII-binding activity (MB630 = 1)” value was found to be 0.32 fold. In addition, in test [2], the “Relative mFcγRIII-binding activity (MB630 = 1)” value was found to be 0.42 fold. Also, the “relative mFcγRII-binding activity (mIgG1 = 1)” value in test [3] worked out at 3.5 fold. Further, the “relative mFcγRIII-binding activity (mIgG1 = 1)” value in test [4] came out at 0.07 fold.

B7: MB768 (antibody, mouse IgG1, kappa)
heavy: QVQLQESGPGLVKPSETLSLTCAVSGHSISHDHAWSWVRQPPGEGLEWIGFISYSGITNYNPSLQGRVTISRDNSKNTLYLQMNSLRAEDTAVYYCARSLARTTAMDYWGEGTLVTVSSAKTTPPSVYPLAPGSAAQTNSMVTLGCLVKGYFPEPVTVTWNSGSLSSGVHTFPAVLQSDLYTLSSSVTVPSSTWPSETVTCNVAHPASSTKVDKKIVPRDCGCKPCICEPNEVELVFIFPPKPKDVLTITLTPKVTCVVVDISKDDPEVQFSWFVDDVEVHTAQTQPREEQFNSTFRSVSELPIMHQDWLNGKEFKCRVNSAAFPQPIEKTISKTKGRPKAPQVYTIPPPKEQMAKDKVSLTCMITDFFPEDITVEWQWNGQPAENYKNTQPIMDTDGSYFVYSKLNVQKSNWEAGNTFTCSVLHEGLHNHHTEKSLSHSPGK
light: not shown
notes: as for B1
Turning to B7, the “Relative mFcγRII-binding activity (MB630 = 1)” value in test [1] was 0.5 fold. The “Relative mFcγRIII-binding activity (MB630 = 1)” value in test [2] turned out to be 0.81 fold. Further, the “relative mFcγRII-binding activity (mIgG1 = 1)” value in test [3] was found to be 5.4 fold. Further, in test [4], the “relative mFcγRIII-binding activity (mIgG1 = 1)” value was 0.14 fold.

B8: MB769 (antibody, mouse IgG1, kappa)
heavy: QVQLQESGPGLVKPSETLSLTCAVSGHSISHDHAWSWVRQPPGEGLEWIGFISYSGITNYNPSLQGRVTISRDNSKNTLYLQMNSLRAEDTAVYYCARSLARTTAMDYWGEGTLVTVSSAKTTPPSVYPLAPGSAAQTNSMVTLGCLVKGYFPEPVTVTWNSGSLSSGVHTFPAVLQSDLYTLSSSVTVPSSTWPSETVTCNVAHPASSTKVDKKIVPRDCGCKPCICEPNEVELVFIFPPKPKDVLTITLTPKVTCVVVDISKDDPEVQFSWFVDDVEVHTAQTQPREEQFNSTFRSVSELPIMHQDWLNGKEFKCRVNSAAFPADIEKTISKTKGRPKAPQVYTIPPPKEQMAKDKVSLTCMITDFFPEDITVEWQWNGQPAENYKNTQPIMDTDGSYFVYSKLNVQKSNWEAGNTFTCSVLHEGLHNHHTEKSLSHSPGK
light: not shown
notes: as for B1
For B8, in test [1], the “Relative mFcγRII-binding activity (MB630 = 1)” value was 0.31 fold. For the same molecule, the “Relative mFcγRIII-binding activity (MB630 = 1)” value in test [2] was found to be 0.38 fold. For the same molecule, the “relative mFcγRII-binding activity (mIgG1 = 1)” value in test [3] amounted to 3.3 fold. Moreover, the “relative mFcγRIII-binding activity (mIgG1 = 1)” value in test [4] amounted to 0.06 fold.
